Measured values: the DeepSol protein solubility set

Assay: soluble on expression in E. coli; label from the status in PepcDB or PDB records

Question: For “MNPKFPDSPFLNDLLARLGEVLRQSPAQDFERNLKAGVTSMLTKLDLVSREEFDVQAAVLARTREKLGQLEARLADLEKHERQADEG”, which “soluble on expression in E. coli” value is on record?
Answer: not soluble

Question: With “MAVDMFIKIGDVKGESKDKTHAEEIDVLAWSWGMSQSGSMHMGGGGGAGKVNVQDLSFTKYIDKSTPNLMMACSSGKHYPQAKLTIRKAGGENQVEYLIITLKEVLVSSVSTGGSGGEDRLTENVTLNFAQVQVDYQPQKADGAKDGGPVKYGWNIRQNVQA” as the sequence, how does the “soluble on expression in E. coli” value read?
Answer: soluble

Question: For “SLKIRERFSMVDLPVLIITAAIIGHDKYKAFHAGANDILQKPYHYSEFMARIQNLIMMKHTANQATRMEMAFLQSQIKPHFLYNVLNTIISLTHLDIEKAREVTEEFTNYLRMSFDFQNTSAISSFRHELSIINSYLSIEKTRFSNRLEVLFDIDEDIDFILPPLMIQPLVENAVLHGVSKKRGGGWIKLTAKKQSKNEYHIKVEDNGPGITPEKQIDLLSTDFDRSVGLKNINQRLKHFCGSELMISSTPDAGTSVSMLIHLAETTGSPKELKDTERT”, which “soluble on expression in E. coli” value is on record?
Answer: soluble

Question: With “HPPMPDYTRSLESTLSFWASWVEELPHQRLYDAEVRRSMLVLRALTDLQTGGIVAAPTTSLPEDFGGIRNWDYRYVWLRDSALTIEALVEYGFSQAALQWRTWLLRAIAGDPENLRIMYGLGGERHLPERELQHLRGYENSVPVRVGNGAAEQYQADVVGEVMVALETIRRAGCLEDEFSWGMQKAILDFQEANFDRKDQGIWEMRSEPQYFTHGRAMMWAGFDRGIKAIEEFNLDGPIERWRELRAKLREEIMTNGFNEEIQSFTQCYDNTQVDASLLQLAQIGFIGFDDPKMLSTVARIEQELLDAHGFLHRYHTDGSDGLAGDEYPFLICSFWLVEQYASSNRLDEAKEKMNRILAVQSPLGLLAEEYSTHHGRLAGNYPQAFSHIGLISAARAINFEEARNR” as the sequence, how does the “soluble on expression in E. coli” value read?
Answer: not soluble

Question: Which “soluble on expression in E. coli” value does the source give for “MGSDKIHHHHHHMNRVISVGFEHPKSYLDSNQSVEAKSRIDSYIDKKMDEWNKEVVYAKHLYEPSVNKEYYKRHMIEHVWRIRMSRTVQAKALHQIAKISPEAAQLYARYQDEEMLHDILFKQDALALGVTEDTIKNTEPMFATRLLMGFKYFVAEHENPLGAVAYSYLVEYVTAKITPDQVSNLKSELGSENIKGQVAHINTDLSHDHSGDMWEIVRALLFTESDIEMFIKYIDEIQDLLAMYFKELYEKTIAKNESQAA” here?
Answer: not soluble

Question: For “MYVMTQSGWLELICGCMFSGKSEELIRRVRRAQFAKQEVKVFKPTIDNRYSEDAVVSHNGNSVIAIPVATPAEMFRYISAATDVVAIDEIQFFSDDIIDVVQTLADCGYRVIAAGLDQDFRGEPFGPVPALMAIAESVTKLQAVCTVCGSPASRTQRLINGAPASYDDPVILVGASEAYEPRCRHHHEVPGKPKKRYNHPLAGHTGE”, which “soluble on expression in E. coli” value is on record?
Answer: soluble

Question: With “MDQQSTRTDITVNVDGFWMLQALLDIRHVAPELRCRPYVSTDSNDWLNEHPGMAVMREQGIVVNDAVNEQVAARMKVLAAPDLEVVALLSRGKLLYGVIDDENQPPGSRDIPDNEFRVVLARRGQHWVSAVRVGNDITVDDVTVSDSASIAALVMDGLESIHHADPAAINAVNVPMEEMLEATKSWQESGFNVFSGGDLRRMGISAATVAALGQALSDPAAEVAVYARQYRDDAKGPSASVLSLKDGSGGRIALYQQARTAGSGEAWLAICPATPQLVQVGVKTVLDTLPYGEWKTHSRV” as the sequence, how does the “soluble on expression in E. coli” value read?
Answer: soluble

Question: For “MKNIIRTPETHPLTWRLRDDKQPVWLDEYRSKNGYEGARKALTGLSPDEIVNQVKDAGLKGRGGAGFSTGLKWSLMPKDESMNIRYLLCNADEMEPGTYKDRLLMEQLPHLLVEGMLISAFALKAYRGYIFLRGEYIEAAVNLRRAIAEATEAGLLGKNIMGTGFDFELFVHTGAGRYICGEETALINSLEGRRANPRSKPPFPATSGVWGKPTCVNNVETLCNVPAILANGVEWYQNISKSKDAGTKLMGFSGRVKNPGLWELPFGTTAREILEDYAGGMRDGLKFKAWQPGGAGTDFLTEAHLDLPMEFESIGKAGSRLGTALAMAVDHEINMVSLVRNLEEFFARESCGWCTPCRDGLPWSVKILRALERGEGQPGDIETLEQLCRFLGPGKTFCAHAPGAVEPLQSAIKYFREEFEAGIKQPFSNTHLINGIQPNLLKERWLEHHHHHH”, which “soluble on expression in E. coli” value is on record?
Answer: not soluble

Question: With “MQRKGDTPATLDLFADQTPQPRRDEQIGPGSWLFSGFALPAMPTLLLALEQTLGHSPFRHMLTPGGLSMSAALSSCGPLGWITDRHGYRYSDVDPQTGQPWPAMPDAFMQLAQSAALAAGYRGFVPDACLINRYIPGAKMSLHQDKDEHDHRWPVVSVSLGIPAIFQFGGMQRSDKTRRISLFHGDVVVWGGEDRLRFHGILPIKQAEHPLLGEQRINLTFRKAGRDSLEHHHHHH” as the sequence, how does the “soluble on expression in E. coli” value read?
Answer: soluble

Question: With “LQVYTSDNQLIAEYGGKLSVPVEYNQIPPTFIHAFLAAEDSSFFEHSGISFKGLGRALSETVTGSNVQTGGSTITMQVAKNYYLSPERTLKRKLTEIFLARKIEQNLTKQEILSLYVNKIFLGKNAYGIAAAAKIYYNKTLDQLSIAEMAMISGLPKAPSKYNPVVNP” as the sequence, how does the “soluble on expression in E. coli” value read?
Answer: not soluble

Question: Which “soluble on expression in E. coli” value does the source give for “MSLNTQDFLAGYTKRFVDNKEEDMSLDEYLELCKTDPTAYANPAERLLMAIGEPELIDTRHDPVLSRIFSNKIIHHYEVFEDFYGMEEPIEQIVGFLKHAAQGLEETKQVLYLLGPVGGGKSSIAEKLKDLMERVPFYAIKGSPVFESPLSLFNPQEDGELLRERFGIPTRYLRYLMSPWAVKRLQEYNGDISKFRVIKVKPSRLKQIAIAKTEPGDENNQDISSLVGKVDIRKLEEFSQDDPDAYSYSGGLCRANRGLLEFVEMFKAPIKVLHPLLTATQEGNYNATEGLSAIPFEGIILAHSNESEWQSFRNNKNNEAFIDRINIVKVPYCLRVSEEIKIYQKLIHNSSLANAPCAPGTLDMLAQFSVLTRLKEPQNSSIYSKMRVYNGESLKDTDPKAKSYQEYRDFAGVDEGMSGISTRFAFKILSKVFNFDHTEVAANPVHLMYVLERQIEQEQFPQELHETYLNFIKEYLATKYVDFIGKEIQTAYLESYSEYGQNIFDRYITYADFWIQDQDYRDPDTGEIFDRALLNLELEKIEKPAGISNPKDFRNEVVNFVLRARANNRGKNPVWNSYEKLKSVIEKKMFTNTEDLLPVISFNAKASEEDKKKHEEFISRMVEKGYTRKQVRLLCEWYLRVRKSQEGHHHHHH” here?
Answer: soluble

Question: With “KTISLYKTKIPQDKTENVDAFLVTDSELISKLEKAKNKKEETKASGKSASARVAVQATQKKQSNEKQIVGYTTTSALSEDGKHIFKLGKLNSENYERKIIVGATVETLEQSTTLQSEEAIVLAAPGKYKDSDQKRVMITQGPNLIGVHANTKENEETKKFVNW” as the sequence, how does the “soluble on expression in E. coli” value read?
Answer: not soluble

Question: For “MGSDKIHHHHHHVDLGHDVTLFASGDSITSAKLDACWPRALRLDPTIRDALAPHMLMMEKVRKVAHEFDVLHFHLDYMPFPLFTTMDTPFVTTLHGRLDLPELQPVFDACSNVPVVSISDSQRQPLPQANWLNTIYHGLPEQLLTPQAHKKPEYLAFLGRICPEKRVDTAIRIAAQSGLPLKIAAKVDKVDQEYFKREIEPLLSMAHVEFVGEINEAQKPEFLSSAKALLFPIDWSESFGLVMIESMACGTPVIAFNRGSVPEVIDHGVTGYIVEDVQGAVAALQRLDELSRTEMRGRRLNLPLEKMRDWRIGSRVCRHHAG”, which “soluble on expression in E. coli” value is on record?
Answer: not soluble

Question: Which “soluble on expression in E. coli” value does the source give for “PGATPMSLGLFSPTILLPDSAREWPPERQRLVLLHEMAHLKHRDLLLGLVGQLGRALHWPNPLAWTGWSKLLQAREAACDETVLAAGEDPETYAHQLLAAAR” here?
Answer: not soluble

Question: Which “soluble on expression in E. coli” value does the source give for “MSLSGEPYNFEYTFSKSHDIGVSLTIGKRNYMEDEVLIAGNIKEGIDLVGIFDGHNGSDAAKLAAKLFKEEIKHLEEEFDWITLFEKVHSTIIKSTESGTTATLALIYSNKITLVHCGDSTAFALKKRKLKKLTHDQNTSSLEEVSSIKKNGGVVEFNGGILRVNGQISVTRSLGDKKFHPPLTCIPEVIELESDDITSLVLTSDGISSVLQLDEIEAVMNSEMNVEEKSSTLRNQSFIREGKDNMSVIVVSFNEGHHHHHH” here?
Answer: soluble

Question: For “MRTLTIEPLTKDAFAPFGDVIETDGSDHFMINNGSTMRFHRLAEVDTAQPDDKAIISIFRAESLPMPLTIGMLERHPQGSQAFIPLLGNPFLIVVAPVGDAPESALTRAFVSNGRQGVNYHRGVWHHPVLTIEKQDDFLVVDRSGSGNNCDEHYFEENQRLVLDPNPQEGLEHHHHHH”, which “soluble on expression in E. coli” value is on record?
Answer: soluble

Question: With “MYTAIPQSGSPFPGSVQDPGLHVWRVEKLKPVPVAQENQGVFFSGDSYLVLHNGPEEVSHLHLWIGQQSSRDEQGACAVLAVQLDDYLGGRPVQHREVQGNESDLFMSYFPRGLKYQEGGVESGFKHVVPNEVVVQRLYQVKGAKNIRATERALNWDSFNTGDCFILDLGQNIFAWCGGKSNILERNKARDLALAIRDSERQGKAQVEIVTDGEEPAEMIQVLGPKPALKEGNPEEDLTADKANAQAAALYKVSDATGQMNLTKVADSSPFALELLISDDCFVLDNGLCGKIYIWKGRKANEKERQAALQVAEGFISRMQYAPNTQVEILPQGRESPIFKQFFKDWK” as the sequence, how does the “soluble on expression in E. coli” value read?
Answer: soluble

Question: With “MLTMKFLVPVDFSEITNPLLRTVKRVGEKVDCEVHLLHVIPPVLYLPYPETMGVSVIDIELLEKLEDEKKAEAKEKLKALEEFLKPVKARSHVDVGDPADVILDYEEKLNPDMVFLGGHKKGLIEKLLIGSTTEKVVKHGKKSDFVIKGSEVEFRKKVVIAYDFSKTAQKTAEFALKFLKNFKVSVEIVHVHESIEMPLIEKLKHKIEKEFSEEKKKILNELKGRFEEEGIKTEVKFLEGEDAVDVISSYVNETPEVELLIIGSKGLSGLKKLILGRTATKLLGKVNKPILIYKVQE” as the sequence, how does the “soluble on expression in E. coli” value read?
Answer: soluble

Question: For “MGSSHHHHHHGGTGENLYFQGGSGTAPPGSPAFCPPPAQYQYAYVPAASYVAASSCVGRGNNGGPLPYPLQPEAAPGYGEEQTSLLWNTRLFGLSTDVPSAMDSVMCIYCISSTHFNYLYRQQRGMFDPITAALLCFDVFWCMQLWPVVTPLSSITLHTLITRRELRKRYGLVGNDLFVKMDRLNADTAAATEAGETGAQAEEATTAEVESQPHRARDSDVTAEAAAAEPAGTGEAAAEVISVTPPATAPSEAAAPRTGESDVMAHTPRRVCHGLRS”, which “soluble on expression in E. coli” value is on record?
Answer: not soluble

Question: Which “soluble on expression in E. coli” value does the source give for “MGHHHHHHSHMRIVMKFGGVSVKDGENIYHCANLVKKFSEGNEVVVVVSAMQGVTDALLKAAHRCCSEPSAGFIKMFIADMMKRHYEAIEYAVRNDEIKAKVIAAVERLLDELEKVLLGISYLGELTRRSEDYIVSFGERLSAPIFSAALLSLGVDSVALTGGDAGIITDRNFGRAKPLPGVYTTIRNRLEPLLTIKKTIPVVTGFIGATDDGSITTLGRGGSDYTATILAAALDADEVWLWKEVDGIMTCDPKYVPNARVIPEISYQEAMELSHFGAKILHPRALEPVMRKNIPVRIKN” here?
Answer: not soluble

Question: Which “soluble on expression in E. coli” value does the source give for “MSSDALPLLSIRGVGKTYAQPVLAEIDLQLFGGEVLALTGENGAGKSTLSKIVGGLERPGAGSLELLGRPYAPASRREAEALGVRMVMQELNLLPTLSVAENLFLHDLPRRAGWIDRRRLRAAAREAMAQVGLEAIDPDTLVGDLGIGHQQMVEIARNLIGDCRLLILDEPTAMLTAREVDMLFEQVERLRERGVAIVYISHRLEELARISQRIAVLRDGRLVCVEPIERYDADQLVTLMVGRDLGERFDLGPRQTGAPLLRVERLSRRGKVHEVSFEVRAGEIFGISGLIGSGRTELLRLIYGADRADGGQVLLGDPPQRLSLRSPADSVRQGVALITEDRKGEGLLLDQSISANLALGNLPALARHGVIDRRREEALARRQVEALRVRCADTAQAVGELSGGNQQKVVIGRWLERDCQVLLFDEPTRGIDVGAKFDIYALLAELTRRGKALVVVSSDLRELMLICDRIGVLSAGRMVDTFERDAWTQDALLAAAFAGYK” here?
Answer: not soluble
